Experimental data from the Human Domainome abundance scans (Beltran et al. 2025).
± gives the uncertainty stated by the source.

B1: Gamma-crystallin S, residues 96 to 176; numbered along this chain, P22914 (parent)
chain: IQIFEKGDFSGQMYETTEDCPSIMEQFHMREIHSCKVLEGVWIFYELPNYRGRQYLLDKKEYRKPIDWGAASPAVQSFRRI

Variants of: B1
Test: abundance fitness (aPCA) (normalised: wild type 0, dead -1); higher = more abundant; growth selection in yeast, the domain comes from the species named
Conditions: Homo sapiens

With IQIFEKGDFSGQMYETTEDCPSIMEQFHMREIHSCGVLEGVWIFYELPNYRGRQYLLDKKEYRKPIDWGAASPAVQSFRRI as the variant, how does the abundance fitness read?
Its abundance fitness is -0.171 ± 0.037.

For IQIFEKGDFSGQMYETTEDCPSIMEQFHMREIHSCKVLEGVWIFYELPNYWGRQYLLDKKEYRKPIDWGAASPAVQSFRRI, which abundance fitness is on record?
Its abundance fitness is -0.138 ± 0.065.

With IQIFEKGDFSGQMYETTEDCPSIMEQFHMREIHSCKVLEGVWIFYELPNYRGRQYLLDKKEYVKPIDWGAASPAVQSFRRI as the variant, how does the abundance fitness read?
Its abundance fitness is -0.118 ± 0.13.

For IQIFEKGDFSGQMYETTEDCPSIMEQFHMIEIHSCKVLEGVWIFYELPNYRGRQYLLDKKEYRKPIDWGAASPAVQSFRRI, which abundance fitness is on record?
The abundance fitness was -0.099 ± 0.11.

With IQIPEKGDFSGQMYETTEDCPSIMEQFHMREIHSCKVLEGVWIFYELPNYRGRQYLLDKKEYRKPIDWGAASPAVQSFRRI as the variant, how does the abundance fitness read?
Its abundance fitness is -0.967 ± 0.18.

For IQIIEKGDFSGQMYETTEDCPSIMEQFHMREIHSCKVLEGVWIFYELPNYRGRQYLLDKKEYRKPIDWGAASPAVQSFRRI, which abundance fitness is on record?
The abundance fitness was -0.987 ± 0.14.

Which abundance fitness does the source give for IQIFEKGDFSGQMYETTEDCPSIMEQFHMREIHSCKVLEGVWIFYELPNYRGRQYLLDKKEYRKPWDWGAASPAVQSFRRI here?
Its abundance fitness is 0.011 ± 0.19.

Which abundance fitness does the source give for IQIFEKGDFSGQMYETTEDCPSIMEQFHMRGIHSCKVLEGVWIFYELPNYRGRQYLLDKKEYRKPIDWGAASPAVQSFRRI here?
Its abundance fitness is 0.015 ± 0.045.

Which abundance fitness does the source give for IQIFEKGDFSGQMYETTEDCPSIMEQFHMREIHSCKVLEGVWIFYELPNYRGRQYLLDKKEYRKGIDWGAASPAVQSFRRI here?
The abundance fitness was -0.009 ± 0.14.

Which abundance fitness does the source give for IQIFEKGDFSGQMYETTEDCPSIMEQFHMREIHSCKVLEGVWIFYELWNYRGRQYLLDKKEYRKPIDWGAASPAVQSFRRI here?
The abundance fitness was -0.712 ± 0.12.

With IQIFEKGDFSGQMYETTEDCPSIMEQFHMREIHSCKVLEGVWIFYELQNYRGRQYLLDKKEYRKPIDWGAASPAVQSFRRI as the variant, how does the abundance fitness read?
The abundance fitness was -0.011 ± 0.097.

Which abundance fitness does the source give for IQIFEKGDFSGQMYETTEDCPSIMEQFHMREIHSCKVLEGVWIFYELINYRGRQYLLDKKEYRKPIDWGAASPAVQSFRRI here?
The abundance fitness was -0.23 ± 0.092.

With IQIFEKGDFSGQMYETTEDCPSIMECFHMREIHSCKVLEGVWIFYELPNYRGRQYLLDKKEYRKPIDWGAASPAVQSFRRI as the variant, how does the abundance fitness read?
Its abundance fitness is -0.123 ± 0.097.

Which abundance fitness does the source give for IQIFEKGDFSGQMYETTEDCPSIMEQFHMREIHKCKVLEGVWIFYELPNYRGRQYLLDKKEYRKPIDWGAASPAVQSFRRI here?
The abundance fitness was -0.954 ± 0.15.

Which abundance fitness does the source give for IQIFEKGDFSGQMYETTEDCPSIMEQFHMREIHSCKVLEGVWIFDELPNYRGRQYLLDKKEYRKPIDWGAASPAVQSFRRI here?
Its abundance fitness is -1.03 ± 0.39.

Which abundance fitness does the source give for IQIFEKGDFSGQMYETTEDCPSIMEQFHMREIHSCKVLEGVWIFYELPNFRGRQYLLDKKEYRKPIDWGAASPAVQSFRRI here?
Its abundance fitness is -0.002 ± 0.045.

For IQIFEKGDFSGQMYETTEDCPSIMEQFHMREIHSCKVLEGVWIFYELPNARGRQYLLDKKEYRKPIDWGAASPAVQSFRRI, which abundance fitness is on record?
The abundance fitness was -0.576 ± 0.03.

Which abundance fitness does the source give for IQIFEKGDFSGQMYETTEDCPSIMEQFHMREIHSCKVLEGVWIFYELPNYRGRQDLLDKKEYRKPIDWGAASPAVQSFRRI here?
Its abundance fitness is -0.531 ± 0.24.

For IQIFEKGDFSGQMYEETEDCPSIMEQFHMREIHSCKVLEGVWIFYELPNYRGRQYLLDKKEYRKPIDWGAASPAVQSFRRI, which abundance fitness is on record?
Its abundance fitness is 0.046 ± 0.054.

Which abundance fitness does the source give for IQIFEKGDFSGQMYEPTEDCPSIMEQFHMREIHSCKVLEGVWIFYELPNYRGRQYLLDKKEYRKPIDWGAASPAVQSFRRI here?
The abundance fitness was 0.102 ± 0.071.

With IQIFEKGDFSGQMYEWTEDCPSIMEQFHMREIHSCKVLEGVWIFYELPNYRGRQYLLDKKEYRKPIDWGAASPAVQSFRRI as the variant, how does the abundance fitness read?
Its abundance fitness is 0.078 ± 0.091.

With IQIFEKGDFSGQMYEHTEDCPSIMEQFHMREIHSCKVLEGVWIFYELPNYRGRQYLLDKKEYRKPIDWGAASPAVQSFRRI as the variant, how does the abundance fitness read?
The abundance fitness was -0.003 ± 0.16.

Which abundance fitness does the source give for IQIFEKGDFSGQMYETTEDCPSIMEQFHMREIHSCKVLEGVWIFYELPNYRDRQYLLDKKEYRKPIDWGAASPAVQSFRRI here?
The abundance fitness was -0.788 ± 0.12.

For IQIFEKGDFSGQMYETTEDCPSIMEQFHMREIHSCKVLEGVWIFYELPNYRYRQYLLDKKEYRKPIDWGAASPAVQSFRRI, which abundance fitness is on record?
Its abundance fitness is -0.95 ± 0.37.

For IQIFEKGDFSGQMYETTEDCPSIPEQFHMREIHSCKVLEGVWIFYELPNYRGRQYLLDKKEYRKPIDWGAASPAVQSFRRI, which abundance fitness is on record?
Its abundance fitness is -0.099 ± 0.069.

Which abundance fitness does the source give for IQIFEKGDFSAQMYETTEDCPSIMEQFHMREIHSCKVLEGVWIFYELPNYRGRQYLLDKKEYRKPIDWGAASPAVQSFRRI here?
Its abundance fitness is 0.041 ± 0.042.

With IQIFEKGDFSGQMYETTEDCPSIMEQFHMREIWSCKVLEGVWIFYELPNYRGRQYLLDKKEYRKPIDWGAASPAVQSFRRI as the variant, how does the abundance fitness read?
The abundance fitness was 0.062 ± 0.05.

For IQIFEKGDFSGQMYETTEDCPSIMEQFHMREIHSCKVLRGVWIFYELPNYRGRQYLLDKKEYRKPIDWGAASPAVQSFRRI, which abundance fitness is on record?
The abundance fitness was 0.054 ± 0.037.

Which abundance fitness does the source give for IQIFEKGDFSGQMYETTEDCPSIMEQFHMREIHSAKVLEGVWIFYELPNYRGRQYLLDKKEYRKPIDWGAASPAVQSFRRI here?
Its abundance fitness is -0.027 ± 0.053.

Which abundance fitness does the source give for IQIFEKGDFSGQMYETTEDCPSIMEQFHMREIHSTKVLEGVWIFYELPNYRGRQYLLDKKEYRKPIDWGAASPAVQSFRRI here?
The abundance fitness was 0.074 ± 0.07.

Which abundance fitness does the source give for IQIFEKGDFSGQMYETTLDCPSIMEQFHMREIHSCKVLEGVWIFYELPNYRGRQYLLDKKEYRKPIDWGAASPAVQSFRRI here?
Its abundance fitness is -0.021 ± 0.064.

With IQIFEKGDFSGQMYETTEDCPSIMEQFHMREIHSCKVLEGVWIFYELPNYRGRQYLLDKKEYRKPIDWGAASPAVQSHRRI as the variant, how does the abundance fitness read?
Its abundance fitness is -0.229 ± 0.37.

With IQIFEKGDFSGQMYETTEDCPSIMEQFHMREMHSCKVLEGVWIFYELPNYRGRQYLLDKKEYRKPIDWGAASPAVQSFRRI as the variant, how does the abundance fitness read?
The abundance fitness was -0.001 ± 0.099.

Which abundance fitness does the source give for IQIFEKGDFSGQMYETTEDCPSIMEQFHSREIHSCKVLEGVWIFYELPNYRGRQYLLDKKEYRKPIDWGAASPAVQSFRRI here?
The abundance fitness was 0.063 ± 0.051.
